Where a chain is given by its changes, count along the chain named.
What was measured:
[1] = molecular target: T1, hTIGIT variant 3 (Q62H and Q64H)-CD4TM-GFP on HEK-293T cells (human, UniProt Q495A1 22-141); assay: FACS on transfected HEK-293T cells
T1 construct: not shown: transmembrane domain of CD4 (CD4TM); GFP tag
T1 chain: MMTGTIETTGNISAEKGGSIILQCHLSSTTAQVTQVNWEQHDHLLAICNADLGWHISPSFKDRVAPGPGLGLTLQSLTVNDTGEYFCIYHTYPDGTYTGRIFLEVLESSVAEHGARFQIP
Description: (§1) To identify the binding epitope of antibody 313M32, an analysis was performed with a series of variants of human TIGIT with specific amino acid substitutions. The variants were based upon the differences between human TIGIT and cynomolgus TIGIT amino acid sequences, SEQ ID NO:4 and SEQ ID NO:77, respectively. The amino acid sequence of rhesus monkey TIGIT (SEQ ID NO:78) is identical to cynomolgus TIGIT (FIG. 21). The amino acid variants introduce amino acid residues present in cynomolgus monkey TIGIT into corresponding positions in human TIGIT. The hTIGIT variants generated have substitutions at (1) E36K and […]; (2) T51M, (3) Q62H and Q64H, (4) D72E, (5) S78Y and S80A, (6) V100M, (7) I109T and T119R, and (8) G135S. Each variant hTIGIT was generated using the hTIGIT (aa 22-141)-CD4TM-GFP construct described in Example 15.
(§2) The TIGIT variants were evaluated by FACS with anti-hTIGIT antibodies. […] After 16 hours, transfected cells were suspended in ice cold HBSS containing 2% FBS and incubated on ice with 1 μg/ml anti-hTIGIT antibodies 313R12, 313M32, or 313M34 for 30 minutes. 313M34 is an anti-hTIGIT antibody that was generated based upon the amino acid sequences of the 10A7 antibody described in U.S. Publication 2009/0258013. […] The cells were analyzed on a FACSCanto instrument (BD Biosciences) and the data was processed using FlowJo software.

[2] = molecular target: T2, hTIGIT variant 7 (I109T and T119R)-CD4TM-GFP on HEK-293T cells (human, UniProt Q495A1 22-141); assay: FACS on transfected HEK-293T cells
T2 construct: not shown: transmembrane domain of CD4 (CD4TM); GFP tag
T2 chain: T1 chain with H41Q, H43Q, I88T, T98R
Description: as §1, §2

human TIGIT = molecular target: T3, human TIGIT (human, UniProt Q495A1 22-141, limits assumed); assay: Biacore, preliminary; format not stated
T3 construct: also called hTIGIT
T3 sequence: T1 chain with H41Q, H43Q

[3] = molecular target: T4, hTIGIT variant 1 (E36K and I41V)-CD4TM-GFP on HEK-293T cells (human, UniProt Q495A1 22-141); assay: FACS, 1 µg/ml antibody on transfected HEK-293T cells
T4 construct: read as I41V; not shown: transmembrane domain of CD4 (CD4TM); GFP tag
T4 chain: T1 chain with E15K, I20V, H41Q, H43Q
Description: as §1
(§3) The TIGIT variants were evaluated by FACS with anti-hTIGIT antibodies. […] After 16 hours, transfected cells were suspended in ice cold HBSS containing 2% FBS and incubated on ice with 1 μg/ml anti-hTIGIT antibodies 313R12, 313M32, or 313M34 for 30 minutes. 313M34 is an anti-hTIGIT antibody that was generated based upon the amino acid sequences of the 10A7 antibody described in U.S. Publication 2009/0258013. The 10A7 antibody is an anti-mouse TIGIT antibody that binds both mouse TIGIT and human TIGIT. A second incubation with 50 μl PE-conjugated anti-Fc secondary antibody was performed to detect cells bound by the antibodies. The cells were analyzed on a FACSCanto instrument (BD Biosciences) and the data was processed using FlowJo software.

[4] = molecular target: T5, hTIGIT variant 2 (T51M)-CD4TM-GFP on HEK-293T cells (human, UniProt Q495A1 22-141); assay: as above
T5 construct: not shown: transmembrane domain of CD4 (CD4TM); GFP tag
T5 chain: T1 chain with T30M, H41Q, H43Q
Description: as §1, §3

[5] = molecular target: T6, hTIGIT variant 4 (D72E)-CD4TM-GFP on HEK-293T cells (human, UniProt Q495A1 22-141); assay: as above
T6 construct: not shown: transmembrane domain of CD4 (CD4TM); GFP tag
T6 chain: T1 chain with H41Q, H43Q, D51E
Description: as §1, §3

[6] = molecular target: T7, hTIGIT variant 5 (S78Y and S80A)-CD4TM-GFP on HEK-293T cells (human, UniProt Q495A1 22-141); assay: as above
T7 construct: not shown: transmembrane domain of CD4 (CD4TM); GFP tag
T7 chain: T1 chain with H41Q, H43Q, S57Y, S59A
Description: as §1, §3

[7] = molecular target: T8, hTIGIT variant 6 (V100M)-CD4TM-GFP on HEK-293T cells (human, UniProt Q495A1 22-141); assay: as above
T8 construct: not shown: transmembrane domain of CD4 (CD4TM); GFP tag
T8 chain: T1 chain with H41Q, H43Q, V79M
Description: as §1, §3

[8] = molecular target: T9, hTIGIT variant 8 (G135S)-CD4TM-GFP on HEK-293T cells (human, UniProt Q495A1 22-141); assay: as above
T9 construct: not shown: transmembrane domain of CD4 (CD4TM); GFP tag
T9 chain: T1 chain with H41Q, H43Q, G114S
Description: as §1, §3

[9] = molecular target: T10, hTIGIT-CD4TM-GFP on HEK-293T cells (human, UniProt Q495A1 22-141); assay: inferred from two blocking studies of hPVR-rbFc binding to hTIGIT cells, flow cytometry
T10 construct: Cell surface fusion protein, transiently expressed; also called human TIGIT ECD-CD4TM-GFP; FLAG-hTIGIT-CD4TM-GFP; not shown: transmembrane domain of CD4 (CD4TM); C-terminal GFP protein tag
T10 sequence: T1 chain with H41Q, H43Q
Description: After 16 hours, transfected cells were suspended in ice cold HBSS containing 2% FBS and heparin and incubated on ice with 0.5 μg/ml hPVR-rbFc fusion protein in the presence of anti-TIGIT antibodies 313R19, 313M26, or 313M32 for 60 minutes. Antibody 313R19 is a humanized version of a rabbit anti-TIGIT antibody. 313R19 binds mouse and human TIGIT. The antibodies were tested at concentrations of 10, 2, and 0.4 ug/ml. Cells were incubated without antibody or without hPVR-rbFc as controls. A second incubation with 100 μl PE-conjugated anti-rabbit Fc secondary antibody was performed to detect cells bound by the hPVR-rbFc fusion protein. The cells were analyzed on a FACSCanto instrument (BD Biosciences) and the data was processed using FlowJo software.
All three anti-TIGIT antibodies blocked binding of hPVR-rbFc to hTIGIT at the highest concentration of 10 μg/ml.

[10] = molecular target: T11, mouse TIGIT ECD-CD4TM-GFP on HEK-293T cells (mouse, UniProt P86176 29-148); assay: flow cytometry, 1 µg/ml antibody on HEK-293T cells transiently transfected with mTIGIT-CD4TM-GFP, PE-conjugated anti-Fc secondary
T11 construct: The legend names the construct as mouse TIGIT ECD; also called mouse TIGIT-CD4TM-GFP; mTIGIT-CD4TM-GFP; not shown: transmembrane domain of CD4 (CD4TM); GFP (green fluorescent protein)
T11 sequence: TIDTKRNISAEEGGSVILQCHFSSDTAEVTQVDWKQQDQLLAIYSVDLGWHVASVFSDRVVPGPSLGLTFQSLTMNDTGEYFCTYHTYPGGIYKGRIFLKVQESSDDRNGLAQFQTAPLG
Description: as §3

binding result [1]: no binding (tested: 1 µg/ml)
binding result [2]: no binding (tested: 1 µg/ml)
Kd (human TIGIT): 0.4 nM
binding result [3]: binds
binding result [4]: binds
binding result [5]: binds
binding result [6]: binds
binding result [7]: binds
binding result [8]: binds
fold higher affinity than antibody 313R19 [9]: ~5 fold
binding result [10]: no binding (tested: 1 µg/ml)
B1: anti-TIGIT antibody 313M32 (antibody, human IgG1, kappa, V domains shown)
VH: QVQLQESGPGLVKPSETLSLTCAVSGYSITSDYAWNWIRQPPGKGLEWIGYISYSGSTSYNPSLRSRVTISRDTSKNQFFLKLSSVTAADTAVYYCARRQVGLGFAYWGQGTLVTVSS
VL: DIQMTQSPSSLSASVGDRVTITCKASQDVSTAVAWYQQKPGKAPKLLIYSASYRYTGVPSRFSGSGSGTDFTFTISSLQPEDIATYYCQQHYSTPWTFGQGTKVEIKR
notes: Humanized version of 313M26, human IgG1

— patent US20190077864A1 (ONCOMED PHARMACEUTICALS, published 2019)
